# Source: patent US12295987B2, “Method of using a GIP/GLP1 co-agonist for diabetes” (Eli Lilly and Company, priority 2018, dated 2025)
# Numbered stars: 1 amine (or outer) side, 2 acyl side, 3 side chain; on linkers, the order of the positions; unused ones are H or OH. Square brackets hold non-standard residues; d marks the D form. Side chains are listed from the residue outwards. Ends that are not written are not given here. * marks the point of attachment. C20 diacid = O=C(O)CCCCCCCCCCCCCCCCCCC(=O)*; γGlu = O=C(O)[C@H](CCC(=O)[*:2])N[*:1]; AEEA = NCCOCCOCC(=O)O; Aib = CC(C)(N)C(=O)O
# Target: T1, human gastric inhibitory peptide receptor (hGIPR) (Homo sapiens, UniProt P48546)
# T1 construct: expressed in transfected cells; host or cells: HEK293
# T1 sequence (P48546 22-466): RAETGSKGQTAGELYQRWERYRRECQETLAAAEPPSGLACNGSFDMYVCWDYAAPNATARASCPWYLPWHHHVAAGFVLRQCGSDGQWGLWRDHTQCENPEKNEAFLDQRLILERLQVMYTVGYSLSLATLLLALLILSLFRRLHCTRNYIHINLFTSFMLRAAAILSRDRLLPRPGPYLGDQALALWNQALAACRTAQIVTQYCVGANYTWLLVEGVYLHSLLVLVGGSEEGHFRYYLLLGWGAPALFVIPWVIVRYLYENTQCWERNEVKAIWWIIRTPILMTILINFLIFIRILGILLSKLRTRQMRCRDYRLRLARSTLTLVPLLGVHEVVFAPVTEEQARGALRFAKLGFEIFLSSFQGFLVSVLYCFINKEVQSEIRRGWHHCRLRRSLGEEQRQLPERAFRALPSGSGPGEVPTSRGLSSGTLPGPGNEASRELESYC
# Assay: cAMP pharmacological functional assay in presence of 0.1% casein, hGIPR
# Type: cell-based
# Conditions: ratio of hGIPR to hGLP1R cAMP EC50 ratios
row,Substance,[hGIPR/hGLP1R] EC50 Ratio
1,Y-Aib-EGTFTSDYSILLDKIAK((2-[2-(2-Amino-ethoxy)-ethoxy]-acetyl)2-(γGlu)-CO—(CH2)18—CO2H)-Aib-AFIEYLIEGGPSSGAPPPS-NH2 (Y[Aib]EGTFTSDYSILLDKIAK([AEEA-AEEA-γGlu-C20 diacid])[Aib]AFIEYLIEGGPSSGAPPPS-NH2; N-terminus assumed; SMILES CC[C@H](C)[C@H](NC(=O)[C@H](CCCCN)NC(=O)[C@H](CC(=O)O)NC(=O)[C@H](CC(C)C)NC(=O)[C@H](CC(C)C)NC(=O)[C@@H](NC(=O)[C@H](CO)NC(=O)[C@H](Cc1ccc(O)cc1)NC(=O)[C@H](CC(=O)O)NC(=O)[C@H](CO)NC(=O)[C@@H](NC(=O)[C@H](Cc1ccccc1)NC(=O)[C@@H](NC(=O)CNC(=O)[C@H](CCC(=O)O)NC(=O)C(C)(C)NC(=O)[C@@H](N)Cc1ccc(O)cc1)[C@@H](C)O)[C@@H](C)O)[C@@H](C)CC)C(=O)N[C@@H](C)C(=O)N[C@@H](CCCCNC(=O)COCCOCCNC(=O)COCCOCCNC(=O)CC[C@H](NC(=O)CCCCCCCCCCCCCCCCCCC(=O)O)C(=O)O)C(=O)NC(C)(C)C(=O)N[C@@H](C)C(=O)N[C@@H](Cc1ccccc1)C(=O)N[C@H](C(=O)N[C@@H](CCC(=O)O)C(=O)N[C@@H](Cc1ccc(O)cc1)C(=O)N[C@@H](CC(C)C)C(=O)N[C@H](C(=O)N[C@@H](CCC(=O)O)C(=O)NCC(=O)NCC(=O)N1CCC[C@H]1C(=O)N[C@@H](CO)C(=O)N[C@@H](CO)C(=O)NCC(=O)N[C@@H](C)C(=O)N1CCC[C@H]1C(=O)N1CCC[C@H]1C(=O)N1CCC[C@H]1C(=O)N[C@@H](CO)C(N)=O)[C@@H](C)CC)[C@@H](C)CC) [Peptide 31],6.44
2,Y-Aib-EGTFTSDYSILLDKIAQ-Aib-AFIEYLIEGGPK((2-[2-(2-Amino-ethoxy)-ethoxy]-acetyl)2-(γGlu)-CO—(CH2)18—CO2H)SGAPPPS-NH2 (Y[Aib]EGTFTSDYSILLDKIAQ[Aib]AFIEYLIEGGPK([AEEA-AEEA-γGlu-C20 diacid])SGAPPPS-NH2; N-terminus assumed; SMILES CC[C@H](C)[C@H](NC(=O)[C@H](CCCCN)NC(=O)[C@H](CC(=O)O)NC(=O)[C@H](CC(C)C)NC(=O)[C@H](CC(C)C)NC(=O)[C@@H](NC(=O)[C@H](CO)NC(=O)[C@H](Cc1ccc(O)cc1)NC(=O)[C@H](CC(=O)O)NC(=O)[C@H](CO)NC(=O)[C@@H](NC(=O)[C@H](Cc1ccccc1)NC(=O)[C@@H](NC(=O)CNC(=O)[C@H](CCC(=O)O)NC(=O)C(C)(C)NC(=O)[C@@H](N)Cc1ccc(O)cc1)[C@@H](C)O)[C@@H](C)O)[C@@H](C)CC)C(=O)N[C@@H](C)C(=O)N[C@@H](CCC(N)=O)C(=O)NC(C)(C)C(=O)N[C@@H](C)C(=O)N[C@@H](Cc1ccccc1)C(=O)N[C@H](C(=O)N[C@@H](CCC(=O)O)C(=O)N[C@@H](Cc1ccc(O)cc1)C(=O)N[C@@H](CC(C)C)C(=O)N[C@H](C(=O)N[C@@H](CCC(=O)O)C(=O)NCC(=O)NCC(=O)N1CCC[C@H]1C(=O)N[C@@H](CCCCNC(=O)COCCOCCNC(=O)COCCOCCNC(=O)CC[C@H](NC(=O)CCCCCCCCCCCCCCCCCCC(=O)O)C(=O)O)C(=O)N[C@@H](CO)C(=O)NCC(=O)N[C@@H](C)C(=O)N1CCC[C@H]1C(=O)N1CCC[C@H]1C(=O)N1CCC[C@H]1C(=O)N[C@@H](CO)C(N)=O)[C@@H](C)CC)[C@@H](C)CC) [Peptide 41],10.00
3,Y-Aib-EGTFTSDYSILLDKIAQ-Aib-AFIEYLIEGGPSSGAPK((2-[2-(2-Amino-ethoxy)-ethoxy]-acetyl)2-(γGlu)-CO—(CH2)18—CO2H)PS-NH2 (Y[Aib]EGTFTSDYSILLDKIAQ[Aib]AFIEYLIEGGPSSGAPK([AEEA-AEEA-γGlu-C20 diacid])PS-NH2; N-terminus assumed; SMILES CC[C@H](C)[C@H](NC(=O)[C@H](CCCCN)NC(=O)[C@H](CC(=O)O)NC(=O)[C@H](CC(C)C)NC(=O)[C@H](CC(C)C)NC(=O)[C@@H](NC(=O)[C@H](CO)NC(=O)[C@H](Cc1ccc(O)cc1)NC(=O)[C@H](CC(=O)O)NC(=O)[C@H](CO)NC(=O)[C@@H](NC(=O)[C@H](Cc1ccccc1)NC(=O)[C@@H](NC(=O)CNC(=O)[C@H](CCC(=O)O)NC(=O)C(C)(C)NC(=O)[C@@H](N)Cc1ccc(O)cc1)[C@@H](C)O)[C@@H](C)O)[C@@H](C)CC)C(=O)N[C@@H](C)C(=O)N[C@@H](CCC(N)=O)C(=O)NC(C)(C)C(=O)N[C@@H](C)C(=O)N[C@@H](Cc1ccccc1)C(=O)N[C@H](C(=O)N[C@@H](CCC(=O)O)C(=O)N[C@@H](Cc1ccc(O)cc1)C(=O)N[C@@H](CC(C)C)C(=O)N[C@H](C(=O)N[C@@H](CCC(=O)O)C(=O)NCC(=O)NCC(=O)N1CCC[C@H]1C(=O)N[C@@H](CO)C(=O)N[C@@H](CO)C(=O)NCC(=O)N[C@@H](C)C(=O)N1CCC[C@H]1C(=O)N[C@@H](CCCCNC(=O)COCCOCCNC(=O)COCCOCCNC(=O)CC[C@H](NC(=O)CCCCCCCCCCCCCCCCCCC(=O)O)C(=O)O)C(=O)N1CCC[C@H]1C(=O)N[C@@H](CO)C(N)=O)[C@@H](C)CC)[C@@H](C)CC) [Peptide 46],8.54
4,Y-Aib-EGTFTSDYSILLDKIAQ-Aib-AFIEYLIEGGPSSGAPPK((2-[2-(2-Amino-ethoxy)-ethoxy]-acetyl)2-(γGlu)-CO—(CH2)18—CO2H)S-NH2 (Y[Aib]EGTFTSDYSILLDKIAQ[Aib]AFIEYLIEGGPSSGAPPK([AEEA-AEEA-γGlu-C20 diacid])S-NH2; N-terminus assumed; SMILES CC[C@H](C)[C@H](NC(=O)[C@H](CCCCN)NC(=O)[C@H](CC(=O)O)NC(=O)[C@H](CC(C)C)NC(=O)[C@H](CC(C)C)NC(=O)[C@@H](NC(=O)[C@H](CO)NC(=O)[C@H](Cc1ccc(O)cc1)NC(=O)[C@H](CC(=O)O)NC(=O)[C@H](CO)NC(=O)[C@@H](NC(=O)[C@H](Cc1ccccc1)NC(=O)[C@@H](NC(=O)CNC(=O)[C@H](CCC(=O)O)NC(=O)C(C)(C)NC(=O)[C@@H](N)Cc1ccc(O)cc1)[C@@H](C)O)[C@@H](C)O)[C@@H](C)CC)C(=O)N[C@@H](C)C(=O)N[C@@H](CCC(N)=O)C(=O)NC(C)(C)C(=O)N[C@@H](C)C(=O)N[C@@H](Cc1ccccc1)C(=O)N[C@H](C(=O)N[C@@H](CCC(=O)O)C(=O)N[C@@H](Cc1ccc(O)cc1)C(=O)N[C@@H](CC(C)C)C(=O)N[C@H](C(=O)N[C@@H](CCC(=O)O)C(=O)NCC(=O)NCC(=O)N1CCC[C@H]1C(=O)N[C@@H](CO)C(=O)N[C@@H](CO)C(=O)NCC(=O)N[C@@H](C)C(=O)N1CCC[C@H]1C(=O)N1CCC[C@H]1C(=O)N[C@@H](CCCCNC(=O)COCCOCCNC(=O)COCCOCCNC(=O)CC[C@H](NC(=O)CCCCCCCCCCCCCCCCCCC(=O)O)C(=O)O)C(=O)N[C@@H](CO)C(N)=O)[C@@H](C)CC)[C@@H](C)CC) [Peptide 47],7.35
5,Y-Aib-EGTFTSDYSILLDKIAQ-Aib-AFIEYLIEGGPSSGAPPPK((2-[2-(2-Amino-ethoxy)-ethoxy]-acetyl)2-(γGlu)-CO—(CH2)18—CO2H)—NH2 (Y[Aib]EGTFTSDYSILLDKIAQ[Aib]AFIEYLIEGGPSSGAPPPK([AEEA-AEEA-γGlu-C20 diacid])-NH2; N-terminus assumed; SMILES CC[C@H](C)[C@H](NC(=O)[C@H](CCCCN)NC(=O)[C@H](CC(=O)O)NC(=O)[C@H](CC(C)C)NC(=O)[C@H](CC(C)C)NC(=O)[C@@H](NC(=O)[C@H](CO)NC(=O)[C@H](Cc1ccc(O)cc1)NC(=O)[C@H](CC(=O)O)NC(=O)[C@H](CO)NC(=O)[C@@H](NC(=O)[C@H](Cc1ccccc1)NC(=O)[C@@H](NC(=O)CNC(=O)[C@H](CCC(=O)O)NC(=O)C(C)(C)NC(=O)[C@@H](N)Cc1ccc(O)cc1)[C@@H](C)O)[C@@H](C)O)[C@@H](C)CC)C(=O)N[C@@H](C)C(=O)N[C@@H](CCC(N)=O)C(=O)NC(C)(C)C(=O)N[C@@H](C)C(=O)N[C@@H](Cc1ccccc1)C(=O)N[C@H](C(=O)N[C@@H](CCC(=O)O)C(=O)N[C@@H](Cc1ccc(O)cc1)C(=O)N[C@@H](CC(C)C)C(=O)N[C@H](C(=O)N[C@@H](CCC(=O)O)C(=O)NCC(=O)NCC(=O)N1CCC[C@H]1C(=O)N[C@@H](CO)C(=O)N[C@@H](CO)C(=O)NCC(=O)N[C@@H](C)C(=O)N1CCC[C@H]1C(=O)N1CCC[C@H]1C(=O)N1CCC[C@H]1C(=O)N[C@@H](CCCCNC(=O)COCCOCCNC(=O)COCCOCCNC(=O)CC[C@H](NC(=O)CCCCCCCCCCCCCCCCCCC(=O)O)C(=O)O)C(N)=O)[C@@H](C)CC)[C@@H](C)CC) [Peptide 48],8.93
6,Y-Aib-EGTFTSDYSILLDKIAQ-Aib-AFIEYLIK((2-[2-(2-Amino-ethoxy)-ethoxy]-acetyl)2-(γGlu)-CO—(CH2)18—CO2H)GG-NH2 (Y[Aib]EGTFTSDYSILLDKIAQ[Aib]AFIEYLIK([AEEA-AEEA-γGlu-C20 diacid])GG-NH2; N-terminus assumed; SMILES CC[C@H](C)[C@H](NC(=O)[C@H](CCCCN)NC(=O)[C@H](CC(=O)O)NC(=O)[C@H](CC(C)C)NC(=O)[C@H](CC(C)C)NC(=O)[C@@H](NC(=O)[C@H](CO)NC(=O)[C@H](Cc1ccc(O)cc1)NC(=O)[C@H](CC(=O)O)NC(=O)[C@H](CO)NC(=O)[C@@H](NC(=O)[C@H](Cc1ccccc1)NC(=O)[C@@H](NC(=O)CNC(=O)[C@H](CCC(=O)O)NC(=O)C(C)(C)NC(=O)[C@@H](N)Cc1ccc(O)cc1)[C@@H](C)O)[C@@H](C)O)[C@@H](C)CC)C(=O)N[C@@H](C)C(=O)N[C@@H](CCC(N)=O)C(=O)NC(C)(C)C(=O)N[C@@H](C)C(=O)N[C@@H](Cc1ccccc1)C(=O)N[C@H](C(=O)N[C@@H](CCC(=O)O)C(=O)N[C@@H](Cc1ccc(O)cc1)C(=O)N[C@@H](CC(C)C)C(=O)N[C@H](C(=O)N[C@@H](CCCCNC(=O)COCCOCCNC(=O)COCCOCCNC(=O)CC[C@H](NC(=O)CCCCCCCCCCCCCCCCCCC(=O)O)C(=O)O)C(=O)NCC(=O)NCC(N)=O)[C@@H](C)CC)[C@@H](C)CC) [Peptide 73],7.73
